Laboratory results reported in patent US20220218001A1, “REDOX ENZYMES IN ANIMAL FEED COMPOSITIONS” (Novozymes A/S, priority 2019, published 2022).
Like-named read-outs stand apart in the source and are kept apart here.

Tests used:
[1] = Growth performance of early weaned piglets fed SOD and CAT; assay type: in vivo
Method: The effect of antioxidant enzymes (SOD and CAT) alone at different doses and in combination on the growth performance of early weaned piglets was evaluated in a trial run. A total of eight treatments were tested during the study: 6 test groups: SOD (Product A, SEQ ID No. 1 at 1250 and 2500 U/kg), CAT (Product B, SEQ ID NO 7 and Product C, […]; […]); were compared against a Positive Control feed (fed with Avilamycin at 90.7 g/lb) and a Negative Control (standard ration). Each of treatments contained 12 replicates per treatment randomly assigned and containing 5 male piglets per replicate for a total number of 480 animals on study. Piglets were randomly assigned to treatments on Trial Day 0 (post-weaning at 21 days of age). At 42 days of age, live performance (growth weight gain and feed conversion) was determined. All rations were formulated with an increase of approximately 5-6% additional crude protein above normal commercial levels. Blood samples were collected at day 0, 14 and 42 to evaluate oxidative stress parameters at DSM. Gut tissue samples at the duodenum and ileum to evaluate gene expression linked to oxidative stress, and intestinal content (ileum and caecum), to study the microbiome population, were collected from 12 animals at the beginning of the trial (baseline) and one animal per pen (12 piglets×8 treatments) at day 14 and at day 42.
The commercial-simulated test model employed in this study used piglets reared under a normal swine industry Starter diet (Trial Day 0-21) and Grower diet (Trial Day 21-42), reared on slatted floors. Ration formulations were conducted via computer-generated linear regression program that simulates formulations conducted during practical swine production techniques. Treatments were tested in male piglets. Piglets were continuously fed their experimental diets from time of placement on Trial Day 0 to Trial Day 42.
Piglets were weighed and randomly placed into each pen on Trial Day 0 and fed their respective diets. Each pen had sufficient floor density, feeder and waterer space for each grow-out area for the piglets. Following 42 days of grow-out, piglets were weighed, feed consumption determined, and feed conversion (feed consumed/[…]) calculated.
A total of 500 male piglets (a sufficient number to ensure availability of at least 480 healthy male piglets for the conduct of the study) were obtained from a swine breeder on Trial Day 0 (upon weaning, when the piglets were 21 days of age). Piglets were fed their respective treatment feed ad libitum from Trial Day 0 to Trial Day 42.
Each experimental test unit of swine pens was housed in separated pens, located in a room containing forced air heaters with a cross-house ventilation system. Piglets were placed in a 6 ft×6 ft pen floor area with a minimum of 9.0 ft^2 per piglet (without feeder and waterer space) provided. At least two nipple drinkers per pen (via well water) provided water. Piglets were observed daily for overall health, behavior and/or evidence of toxicity, and environmental conditions. Temperature in the test facility was checked daily. Drinking water and feed were confirmed to be provided ad libitum. No type of medication (other than test material) was administered during the entire feeding period.
Live performance body weights and feed intakes were collected on Days 0, 14, 21, and 42 during the growing period. Weight gain, feed intake, feed:gain ratio (feed efficiency) were calculated for 0-42 days of age between weaning and Trial Day 42. Differences between piglets fed control and test groups were statistically evaluated at P<0.05 in a typical ANOVA analysis of variance test model, employing Treatment×Replicate RCB (Randomized Complete Block). Control group was considered to be the following: Treatment 2, containing Avilamycin at 90.7 g/lb.
Diets were fed in two feed phases: Starter diet (0-21 days of age) and Grower diet (21-42 days of age). All diets were offered ad libitum, without restriction. […]

[2] = Superoxide dismutase activity (method of Example 9, pH 7.8); assay type: biochemical; details: SOD activity
pepsin [3] = target: T1, pepsin (Sus scrofa, UniProt P00791); test: Gastric stability of superoxide dismutases (method of Example 10, gastric treatment with pepsin); assay type: in vitro ADME
T1 construct: purchased Sigma P7000; host or cells: porcine gastric mucosa (natural source)
Method: retains only 26% of its activity upon gastric treatment in the presence of pepsin.
Two commercial SODs were tested as references: SOD-Mn, from E. coli Sigma S5639 with a activity of 10240 U/mg EP and only 26% activity left after gastric press for 30 min; and SOD-Cu/Zn from Bovine expressed in E. coli Sigma S9697 with activity of 6108 U/mg EP and only 35% activity left after gastric press for 30 min.

[4] = Thermal stability of superoxide dismutases at different pH, Tm unfolding temperature (method of Example 11); assay type: physicochemical
Method: Tm: The term Tm, as used in the Examples refers to the temperature at which 50% of the protein molecules are unfolded and 50% of the protein molecules are folded.
Test were performed on the super oxide dismutases of the invention to measure the temperature at different acidity/alkalinity to determine the temperature at which the polypeptide unfolds and denatures. […] A further embodiment is directed to an animal feed additive comprising a fungal superoxide dismutase thermally stable at pH 7, when measured according to the method described in Example 11, such that protein unfolding (Tm) is 45° C. or more.

pepsin [5] = target: T1, pepsin; test: Gastric stability of superoxide dismutases (method of Example 10, gastric treatment with pepsin); assay type: in vitro ADME; remark: listed apart in the source
[6] = Piglet trial, growth performance d0-42; assay type: in vivo; details: piglets, days 0-42
From the text: FIG. 17: illustrates the Conversion Ratio (FCR) in piglets from days 0-42. There was significant difference observed in growth performance between positive and negative control.

T1 sequence (P00791 60-385): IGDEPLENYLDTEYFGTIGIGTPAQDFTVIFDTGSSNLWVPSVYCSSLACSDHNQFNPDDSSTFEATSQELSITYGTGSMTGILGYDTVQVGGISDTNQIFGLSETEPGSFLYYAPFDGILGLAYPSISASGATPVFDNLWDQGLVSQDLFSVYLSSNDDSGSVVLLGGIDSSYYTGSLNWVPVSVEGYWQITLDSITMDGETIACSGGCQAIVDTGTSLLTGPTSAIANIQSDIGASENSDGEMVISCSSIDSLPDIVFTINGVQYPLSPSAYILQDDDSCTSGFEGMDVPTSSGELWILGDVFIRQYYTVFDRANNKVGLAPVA

COC[C@H]1O[C@@H](OC2OC[C@@H]3O[C@]4(O[C@H]3[C@H]2OC(=O)C(C)C)O[C@H](C)[C@@](O)(C(C)=O)[C@@H]2OCO[C@H]24)[C@@H](OC)[C@@H](O)[C@@H]1O[C@@H]1O[C@H](C)[C@H](OC)[C@H](O[C@H]2C[C@@]3(C)OC4(C[C@@H](O)[C@H](O[C@H]5C[C@@H](O)[C@H](OC(=O)c6c(C)c(Cl)c(O)c(Cl)c6OC)[C@@H](C)O5)[C@@H](C)O4)O[C@@H]3[C@@H](C)O2)[C@H]1O (stereo partly drawn) [T2, Avilamycin]
feed conversion (FCR) ([1]; d0-d42, vs Negative Control, SOD+CAT 400:100 U/kg): improved | Average Body Wt. Gain (kg) Day 0-14 ([1]; piglets, day 0-14): 3.720 kg | Feed Conversion Corrected Day 0-14 ([1]; piglets, day 0-14): 1.215 | Feed Intake (kg/pig) Day 0-14 ([1]; piglets, day 0-14): 4.52 kg/pig | Mortality % Day 0-14 ([1]; piglets, day 0-14): 0.000% | Average Body Wt. (kg) Day 14 ([1]; piglets, day 14): 9.215 kg | Body Weight Coefficient of Variation (Day 14) ([1]; piglets, day 14): 4.700

S9697 Bovine Cu/Zn SOD SIGMA: commercially available superoxide dismutase from bovine erythrocytes and expressed in E. coli of sequence A
Relative Activity Unit (U/mg EP) [2]: 6108 U/mg EP | activity left after gastric press for 30 min (pepsin [3]): 35% | activity retained upon gastric treatment in the presence of pepsin (pepsin [3]): 26% | loss of activity under gastric stability studies (pepsin [3]): 65% | activity retained at 50° C. ([4]; 50° C., method of Example 11): very little | Tm (unfolding temperature) ([4]; pH 3): 50.8 °C | Tm (unfolding temperature) ([4]; pH 4): 59.3 °C | Tm (unfolding temperature) ([4]; pH 5): 63.9 °C | Tm (unfolding temperature) ([4]; pH 6): 66.2 °C | Tm (unfolding temperature) ([4]; pH 7): 65.2 °C | Tm (unfolding temperature) ([4]; pH 8): 63.1 °C | Tm (unfolding temperature) ([4]; pH 9): 61.0 °C | Tm (unfolding temperature) ([4]; pH 10): 57.0 °C | Gastric stability after 15 min (remaining activity, approx, %) (pepsin [5]; 0.25 h): 35%

B1: Catalase: Catalase fed alone in the piglet trial of FIG. 17 (protein)
chain: MRHFWLLPAVAGIAGAQCPYLSGEMSFTQEQDNAGDTIEVTEQTIDNTLYVNDTGSYMTTDFGTPISDQYSLKAGRRGPTLLEDFIFRQKLQRFDHERVPERVVHARGAGAYGTFKSYADWSNVTAADFLSANEKETPMFCRFSTVVGFRGSVDTARDVHGHACRFYTDEGNYDIVGINFAPFFIQDAIQFPDLVHAIKPMPNNEIPQAATAHTSAWDFFSQQSTALHSALWLMSGNGIPRSFRHMNGYGVHSFRFVAANGTSKVVRYRWKSQQGVASLVWEEAQAAAGKNSDYHRQDLYNAIANGHYPKYELQAQIMDEADMLRFGFDLLDPTKLVPEEVVPYTPLGMMELNANPTNYFAEVEQAGFQPGHVVPGIDFTDDPLLQGRLFSYLDTQLTRHGGPNFEQIPVNRPRKPVHNNNRDGFGQQQIPTNNWAYTPNTMSNGYPMQANQTHGHGFFTSPYRYASGHLIREPSPTFHDHWSQPAMFWNSLIPAEQQMVVNAIVFENSKVNSPHVRKNVVNQLNMVNNNLAVRVARGLGLDEPSPNPTYYTSNKTSNVGTFGKPLLSIEGLQVGFLASNSHPESIKQGQAMAAQFSAAGVDLNIVTEAYADGVNTTYALSDAIDFDALIIADGVQSLFASPSLANQMNSTATSTLYPPARPYQILVDSFRYGKPVAAVGSGSAALKNAGIDTSRSGVYTGSSETTENIAKEVLKGLYTFRFVDRFALDE
modifications: Aspergillus niger; mat_peptide (1)..(740)
Feed Conversion Ratio (FCR) [6]: significantly improved the FCR

B2: SEQ ID NO 35: superoxide dismutase; donor Trichoderma rossicum in b755, Trichoderma sp-44174 in b566 (protein)
chain: MRASGILTVLSLAVSSCVAEKDAPIVTGNPHSVEYKATLPKKPFFSNAALVGNVKGYVSAVAAPSGKGVRFSVQFENFPKSGGPFMYHIHEEPATNGNCTSTLAHLDPYHRGETPACDSSKPETCQVGDLSGKYGKITSDPFVAEYFDLYTSLQPGSPAFFGNRSIVVHYANKTRLTCANFAKLPVSDTATKAHTTTSAHHTVIHGPAASGGRHNTTSSHNITGPHYTTGSHHTTDVSPTGSLNPTGIVTAPGSPTTPATFTTVAAGGSASATSSIVPFPGAASGNRVSLALLSGVVAAMFFSL
modifications: Trichoderma sp-44174
notes: superoxide dismutase; donor Trichoderma rossicum, Trichoderma sp-44174 in b566
Relative Activity Unit (U/mg EP) [2]: ~3000 U/mg EP | activity retained under gastric stability studies (pepsin [3]): at least 40%

B3: SEQ ID NO 37: superoxide dismutase; donor Trichoderma sp-54723 in b755, Trichoderma rossicum in b566 (protein, listed as Trichoderma rossicum)
chain: MRASGILAVLSLAVSGCIAEKDAPIVTGNPHSVEYKATLPKKPFFSNAALVGNVKGYVSAVAAPSGKGVRFSVQFENFPKSGGPFMYHIHEEPATNGNCTSTLAHLDPYHRGETPACDSSKPETCQVGDLSGKYGKITSDPFVAEYFDLYTSLQPGSPAFFGNRSIVVHYANKTRLTCANFAKLPVSDTATKAHTTTSAHHTVIHGPAASGGRHNTTSSHNITGPHYTTGSHHTTDVSPTGSLNPTGIVTAPGSPTTPATFTTVAAGGSASATSSIVPFPGAASGNRVSLALLSGVVAAMFFSL
activity retained under gastric stability studies (pepsin [3]): at least 40%

B4: SEQ ID NO 18: superoxide dismutase from Cladobotryum sp. (protein)
chain: MARQGLFLASLLIFPFASCAASEDPTGSKPQFASIPDSQQALLGSFSSTMSVSTFSLPALPYAYDALEPSISAQIMELHHSKHHQTYVNNLNNALKSYFVAISANDVPSQIALQAAVKFNGGGHINHSLFWENLCPATSPDADPQSAPTLAAEISKTWGSLEGFKDAMSKALLGLQGSGWGWLVKDGRALRIVTTKDQDPVVGGEVPIFGIDMWEHAYYLQYLNGKAAYVENIWKVINWKTAERRFIGDRDDAFKILKASI
modifications: Cladobotryum sp
activity retained under gastric stability studies (pepsin [3]): at least 40%

B5: S5639 from Sigma Mn-SOD Escherichia coli: commercially available bacterial (from E. coli) Mn-SOD (protein, UniProt P00448 2-206, looked up)
Superoxide dismutase [Mn]: SYTLPSLPYAYDALEPHFDKQTMEIHHTKHHQTYVNNANAALESLPEFANLPVEELITKLDQLPADKKTVLRNNAGGHANHSLFWKGLKKGTTLQGDLKAAIERDFGSVDNFKAEFEKAAASRFGSGWAWLVLKGDKLAVVSTANQDSPLMGEAISGASGFPIMGLDVWEHAYYLKFQNRRPDYIKEFWNVVNWDEAAARFAAKK
Relative Activity Unit (U/mg EP) [2]: 10240 U/mg EP | loss of activity under gastric stability studies (pepsin [3]): 57% | activity left after gastric press for 30 min (pepsin [3]; 30 min): 26% | Gastric stability after 15 min (remaining activity, approx, %) (pepsin [5]; after 15 min, method of Example 10): 26%
